Experimental data from patent US20190233522A1 (Genmab, published 2019).
Values belong to the binder of their own block, whether it stands above or below them.

Columns and labels:
[1] = molecular target: T1, AXL (human, UniProt P30530 26-447, limits assumed); assay: not described
T1 construct: neither the species nor the construct used is stated there; also called human AXL protein; UFO

[2] = molecular target: T1, AXL; assay: competition with Gas6; assay not described

T1 sequence (P30530 26-447 limits assumed): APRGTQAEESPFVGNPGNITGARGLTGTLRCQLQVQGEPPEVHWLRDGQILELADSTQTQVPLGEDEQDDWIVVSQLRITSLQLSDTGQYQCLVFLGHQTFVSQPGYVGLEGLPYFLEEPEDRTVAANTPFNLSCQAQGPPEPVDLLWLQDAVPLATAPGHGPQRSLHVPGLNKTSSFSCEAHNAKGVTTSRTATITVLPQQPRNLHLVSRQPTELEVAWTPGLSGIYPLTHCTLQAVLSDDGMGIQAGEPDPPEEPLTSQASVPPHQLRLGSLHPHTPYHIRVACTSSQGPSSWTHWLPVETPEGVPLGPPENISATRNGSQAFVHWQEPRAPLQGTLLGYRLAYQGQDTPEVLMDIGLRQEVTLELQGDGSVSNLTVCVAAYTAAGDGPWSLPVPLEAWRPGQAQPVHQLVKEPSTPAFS

- binding result [1]: binds
B1: IgG1-AXL-107-vcMMAE (antibody, V domains shown)
VH: EVQLLESGGGLVQPGGSLRLSCAASGFTFSSYAMNWVRQAPGKGLEWVSTTSGSGASTYYADSVKGRFTISRDNSKNTLYLQMNSLRAEDTAVYYCAKIWIAFDIWGQGTMVTVSS
VL: not shown
notes: also called HuMax-AXL-ADC; IgG1-1021-107-MMAE

- binding result [1]: binds
B2: IgG1-AXL-148-vcMMAE (antibody, V domains shown)
VH: EVQLLESGGGLVQPGGSLRLSCAASGFTFSSYAMTWVRQAPGKGLEWVSAISISGGSTFYADSVKGRFTISRDNSKNTLYLQMNSLRAEDTAVYYCRGYSGYVYDAFDFWGQGTMVTVSS
VL: DIQMTQSPSSLSASVGDRVTITCRASQGISNWLAWYQQKPEKAPKSLIYAASSLQSGVPSRFSGSGSGTDFTLTISSLQPEDFATYYCQQYNSYPLTFGGGTKVEIK
modifications: vcMMAE alkylated to cysteines of the reduced antibody (positions not given)
notes: Antibody-drug conjugate of antibody 148 with vcMMAE; IgG1 by name; also called IgG1-1021-148-MMAE; IgG1-AXL-148-MMAE

- binding result [1]: binds
B3: IgG1-AXL-061-vcMMAE (antibody, V domains shown)
VH: QVQLVQSGAEVKKPGASVKVSCKASGYAFTGYGISWVRQAPGQGLEWIGWISAYNGNTNYVQNLQDRVTMTTDTSTSTAYMELRSLRSDDTAVYYCARDHISMLRGIIIRNYWGQGTLVTVSS
VL: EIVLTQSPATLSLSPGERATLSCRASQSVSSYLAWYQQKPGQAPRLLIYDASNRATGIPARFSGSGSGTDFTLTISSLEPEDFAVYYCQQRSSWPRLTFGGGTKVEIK
modifications: vcMMAE alkylated to cysteines of the reduced antibody (positions not given)
notes: Antibody-drug conjugate of antibody 061 with vcMMAE; IgG1 by name

- binding result [2]: binds
B4: IgG1-AXL-061 (antibody, V domains shown)
VH: B3 VH
VL: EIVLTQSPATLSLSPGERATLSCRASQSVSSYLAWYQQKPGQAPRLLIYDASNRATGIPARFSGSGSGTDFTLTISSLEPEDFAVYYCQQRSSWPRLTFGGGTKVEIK
notes: IgG1 by name; Unconjugated antibody
